Experimental data published in publication PMC5431965.

Columns and labels:
[1] = target: HydF V261C mutant (cysteine-less background), spin labeled with MTSSL (Thermotoga neapolitana); assay: PELDOR (DEER) pulse EPR; distances between spin labels on the two monomers; protein about 150 uM in deuterated buffer with 33% v/v deuterated glycerol, quickly frozen, Q-band, 50 K; without and with 10 mM GTP
[2] = target: HydF, wild type recombinant, Thermotoga neapolitana (Thermotoga neapolitana); assay: SEC; Superdex 200 GL 10 300 in 25 mM Tris-HCl pH 8.0, 200 mM KCl, 1 mM MgCl2; column calibrated with molecular weight standards

Substance | stoichiometry N [1] | stoichiometry N [2]
HydF V261C mutant (cysteine-less background), spin labeled with MTSSL (natural protein) | 2 | 
HydF, wild type recombinant, Thermotoga neapolitana (natural protein) |  | 2
